# According to publication PMC6173284:
# Target: His-tagged Vps5 dimer from Chaetomium thermophilum (Chaetomium thermophilum)
# Assay: SEC-MALS
substance,measurement,value
His-tagged Vps5 dimer from Chaetomium thermophilum (natural protein),stoichiometry N,2
